Reference: the supplement of paper PMC5998384

What was measured:
HeLa Kyoto [1] = experiment: solubility change mitosis vs G1/S (difference of NP-40 vs SDS log2 ratios) (log2 ratio difference); higher = more soluble in mitosis
HeLa Kyoto [2] = experiment: solubility in G1/S (NP-40 vs SDS abundance) (log2 ratio); higher = more soluble; details: cell cycle stage: G1/S
HeLa Kyoto [3] = experiment: melting temperature (median over replicates), in situ; higher = more thermally stable
HeLa Kyoto [4] = experiment: thermal stability score vs G1/S (z-score of summed log2 fold changes over temperatures); higher = more thermally stable than in G1/S
[5] = cell cycle stage: early G1 (4.5 h after nocodazole release)
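Throughout, for melting temperature (median over replicates), in situ: HeLa Kyoto cells synchronized by double thymidine or nocodazole block, proteins quantified by TMT10plex mass spectrometry, three independent biological replicates.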
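Throughout, for solubility change mitosis vs G1/S (difference of NP-40 vs SDS log2 ratios): synchronized HeLa Kyoto cells (double thymidine block for G1/S, nocodazole release for mitosis), protein amounts in NP-40 versus SDS lysates quantified by mass spectrometry, three biological replicates.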
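Throughout, for solubility in G1/S (NP-40 vs SDS abundance): HeLa Kyoto cells arrested at G1/S by double thymidine block, proteins quantified by TMT10plex mass spectrometry in mild NP-40 versus SDS extracts, three biological replicates.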
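Throughout, for thermal stability score vs G1/S (z-score of summed log2 fold changes over temperatures): synchronized HeLa Kyoto cells, proteins quantified by TMT10plex mass spectrometry, three biological replicates, mitosis taken 0.5 h after nocodazole release, G1/S directly after double thymidine block.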

Sequence	solubility change mitosis (log2) (HeLa Kyoto [1])	solubility in G1/S (log2) (HeLa Kyoto [2])	melting temperature (HeLa Kyoto [3]; cell cycle stage: G1/S)	melting temperature (HeLa Kyoto [3]; cell cycle stage: mitosis)	thermal stability score (HeLa Kyoto [4]; [5])	thermal stability score (HeLa Kyoto [4]; cell cycle stage: mitosis)
MADIDNKEQSELDQDLDDVEEVEEEETGEETKLKARQLTVQMMQNPQILAALQERLDGLVETPTGYIESLPRVVKRRVNALKNLQVKCAQIEAKFYEEVHDLERKYAVLYQPLFDKRFEIINAIYEPTEEECEWKPDEEDEISEELKEKAKIEDEKKDEEKEDPKGIPEFWLTVFKNVDLLSDMVQEHDEPILKHLKDIKVKFSDAGQPMSFVLEFHFEPNEYFTNEVLTKTYRMRSEPDDSDPFSFDGPEIMGCTGCQIDWKKGKNVTLKTIKKKQKHKGRGTVRTVTKTVSNDSFFNFFAPPEVPESGDLDDDAEAILAADFEIGHFLRERIIPRSVLYFTGEAIEDDDDDYDEEGEEADEEGEEEGDEENDPDYDPKKDQNPAECKQQ [NAP1L1]	-0.0741	0.329	49.7 °C	50.9 °C	2.07	2.03
MADKEAGGSDGPRETAPTSAYSSPARSLGDTGITPLSPSHIVNDTDSNVSEQQSFLVVVAVDFGTTSSGYAYSFTKEPECIHVMRRWEGGDPGVSNQKTPTTILLTPERKFHSFGYAARDFYHDLDPNEAKQWLYLEKFKMKLHTTGDLTMDTDLTAANGKKVKALEIFAYALQYFKEQALKELSDQAGSEFENSDVRWVITVPAIWKQPAKQFMRQAAYQAGLASPENSEQLIIALEPEAASIYCRKLRLHQMIELSSKAAVNGYSGSDTVGAGFTQAKEHIRRNRQSRTFLVENVIGEIWSELEEGDKYVVVDSGGGTVDLTVHQIRLPEGHLKELYKATGGPYGSLGVDYEFEKLLYKIFGEDFIEQFKIKRPAAWVDLMIAFESRKRAAAPDRTNPLNITLPFSFIDYYKKFRGHSVEHALRKSNVDFVKWSSQGMLRMSPDAMNALFKPTIDSIIEHLRDLFQKPEVSTVKFLFLVGGFAEAPLLQQAVQAAFGDQCRIIIPQDVGLTILKGAVLFGLDPAVIKVRRSPLTYGVGVLNRYVEGKHPPEKLLVKDGTRWCTDVFDKFISADQSVALGELVKRSYTPAKPSQLVIVINIYSSEHDNVSFITDPGVKKCGTLRLDLTGTSGTAVPARREIQTLMQFGDTEIKATAIDIATSKSVKVGIDFLNY [HSPA12A]	-0.113	-0.123	52.1 °C	52.7 °C	0.628	1
MADKVRRQRPRRRVCWALVAVLLADLLALSDTLAVMSVDLGSESMKVAIVKPGVPMEIVLNKESRRKTPVIVTLKENERFFGDSAASMAIKNPKATLRYFQHLLGKQADNPHVALYQARFPEHELTFDPQRQTVHFQISSQLQFSPEEVLGMVLNYSRSLAEDFAEQPIKDAVITVPVFFNQAERRAVLQAARMAGLKVLQLINDNTATALSYGVFRRKDINTTAQNIMFYDMGSGSTVCTIVTYQMVKTKEAGMQPQLQIRGVGFDRTLGGLEMELRLRERLAGLFNEQRKGQRAKDVRENPRAMAKLLREANRLKTVLSANADHMAQIEGLMDDVDFKAKVTRVEFEELCADLFERVPGPVQQALQSAEMSLDEIEQVILVGGATRVPRVQEVLLKAVGKEELGKNINADEAAAMGAVYQAAALSKAFKVKPFVVRDAVVYPILVEFTREVEEEPGIHSLKHNKRVLFSRMGPYPQRKVITFNRYSHDFNFHINYGDLGFLGPEDLRVFGSQNLTTVKLKGVGDSFKKYPDYESKGIKAHFNLDESGVLSLDRVESVFETLVEDSAEEESTLTKLGNTISSLFGGGTTPDAKENGTDTVQEEEESPAEGSKDEPGEQVELKEEAEAPVEDGSQPPPPEPKGDATPEGEKATEKENGDKSEAQKPSEKAEAGPEGVAPAPEGEKKQKPARKRRMVEEIGVELVVLDLPDLPEDKLAQSVQKLQDLTLRDLEKQEREKAANSLEAFIFETQDKLYQPEYQEVSTEEQREEISGKLSAASTWLEDEGVGATTVMLKEKLAELRKLCQGLFFRVEERKKWPERLSALDNLLNHSSMFLKGARLIPEMDQIFTEVEMTTLEKVINETWAWKNATLAEQAKLPATEKPVLLSKDIEAKMMALDREVQYLLNKAKFTKPRPRPKDKNGTRAEPPLNASASDQGEKVIPPAGQTEDAEPISEPEKVETGSEPGDTEPLELGGPGAEPEQKEQSTGQKRPLKNDEL [HYOU1]	-0.0667	0.402	54.1 °C	54.4 °C	3.86	5.24
MADLSLADALTEPSPDIEGEIKRDFIATLEAEAFDDVVGETVGKTDYIPLLDVDEKTGNSESKKKPCSETSQIEDTPSSKPTLLANGGHGVEGSDTTGSPTEFLEEKMAYQEYPNSQNWPEDTNFCFQPEQVVDPIQTDPFKMYHDDDLADLVFPSSATADTSIFAGQNDPLKDSYGMSPCNTAVVPQGWSVEALNSPHSESFVSPEAVAEPPQPTAVPLELAKEIEMASEERPPAQALEIMMGLKTTDMAPSKETEMALAKDMALATKTEVALAKDMESPTKLDVTLAKDMQPSMESDMALVKDMELPTEKEVALVKDVRWPTETDVSSAKNVVLPTETEVAPAKDVTLLKETERASPIKMDLAPSKDMGPPKENKKETERASPIKMDLAPSKDMGPPKENKIVPAKDLVLLSEIEVAQANDIISSTEISSAEKVALSSETEVALARDMTLPPETNVILTKDKALPLEAEVAPVKDMAQLPETEIAPAKDVAPSTVKEVGLLKDMSPLSETEMALGKDVTPPPETEVVLIKNVCLPPEMEVALTEDQVPALKTEAPLAKDGVLTLANNVTPAKDVPPLSETEATPVPIKDMEIAQTQKGISEDSHLESLQDVGQSAAPTFMISPETVTGTGKKCSLPAEEDSVLEKLGERKPCNSQPSELSSETSGIARPEEGRPVVSGTGNDITTPPNKELPPSPEKKTKPLATTQPAKTSTSKAKTQPTSLPKQPAPTTIGGLNKKPMSLASGLVPAAPPKRPAVASARPSILPSKDVKPKPIADAKAPEKRASPSKPASAPASRSGSKSTQTVAKTTTAAAVASTGPSSRSPSTLLPKKPTAIKTEGKPAEVKKMTAKSVPADLSRPKSTSTSSMKKTTTLSGTAPAAGVVPSRVKATPMPSRPSTTPFIDKKPTSAKPSSTTPRLSRLATNTSAPDLKNVRSKVGSTENIKHQPGGGRAKVEKKTEAAATTRKPESNAVTKTAGPIASAQKQPAGKVQIVSKKVSYSHIQSKCGSKDNIKHVPGGGNVQIQNKKVDISKVSSKCGSKANIKHKPGGGDVKIESQKLNFKEKAQAKVGSLDNVGHLPAGGAVKTEGGGSEAPLCPGPPAGEEPAISEAAPEAGAPTSASGLNGHPTLSGGGDQREAQTLDSQIQETSI [MAP4]	-0.0455	0.265	59 °C	–	-3.19	-3.41
MADNEKLDNQRLKNFKNKGRDLETMRRQRNEVVVELRKNKRDEHLLKRRNVPHEDICEDSDIDGDYRVQNTSLEAIVQNASSDNQGIQLSAVQAARKLLSSDRNPPIDDLIKSGILPILVHCLERDDNPSLQFEAAWALTNIASGTSEQTQAVVQSNAVPLFLRLLHSPHQNVCEQAVWALGNIIGDGPQCRDYVISLGVVKPLLSFISPSIPITFLRNVTWVMVNLCRHKDPPPPMETIQEILPALCVLIHHTDVNILVDTVWALSYLTDAGNEQIQMVIDSGIVPHLVPLLSHQEVKVQTAALRAVGNIVTGTDEQTQVVLNCDALSHFPALLTHPKEKINKEAVWFLSNITAGNQQQVQAVIDANLVPMIIHLLDKGDFGTQKEAAWAISNLTISGRKDQVAYLIQQNVIPPFCNLLTVKDAQVVQVVLDGLSNILKMAEDEAETIGNLIEECGGLEKIEQLQNHENEDIYKLAYEIIDQFFSSDDIDEDPSLVPEAIQGGTFGFNSSANVPTEGFQF [KPNA4]	-0.0591	0.0932	52.3 °C	51.9 °C	-0.466	-0.221
MADTQYILPNDIGVSSLDCREAFRLLSPTERLYAYHLSRAAWYGGLAVLLQTSPEAPYIYALLSRLFRAQDPDQLRQHALAEGLTEEEYQAFLVYAAGVYSNMGNYKSFGDTKFVPNLPKEKLERVILGSEAAQQHPEEVRGLWQTCGELMFSLEPRLRHLGLGKEGITTYFSGNCTMEDAKLAQDFLDSQNLSAYNTRLFKEVDGEGKPYYEVRLASVLGSEPSLDSEVTSKLKSYEFRGSPFQVTRGDYAPILQKVVEQLEKAKAYAANSHQGQMLAQYIESFTQGSIEAHKRGSRFWIQDKGPIVESYIGFIESYRDPFGSRGEFEGFVAVVNKAMSAKFERLVASAEQLLKELPWPPTFEKDKFLTPDFTSLDVLTFAGSGIPAGINIPNYDDLRQTEGFKNVSLGNVLAVAYATQREKLTFLEEDDKDLYILWKGPSFDVQVGLHELLGHGSGKLFVQDEKGAFNFDQETVINPETGEQIQSWYRSGETWDSKFSTIASSYEECRAESVGLYLCLHPQVLEIFGFEGADAEDVIYVNWLNMVRAGLLALEFYTPEAFNWRQAHMQARFVILRVLLEAGEGLVTITPTTGSDGRPDARVRLDRSKIRSVGKPALERFLRRLQVLKSTGDVAGGRALYEGYATVTDAPPECFLTLRDTVLLRKESRKLIVQPNTRLEGSDVQLLEYEASAAGLIRSFSERFPEDGPELEEILTQLATADARFWKGPSEAPSGQA [DPP3]	-0.14	0.153	53.8 °C	53 °C	-0.363	-1.69
